pKi: −log10 of the molar value.
Assays:
[1] = target: bovine trypsin (bovine)
[2] = target: bovine trypsin (bovine); assay: enzyme inhibition kinetics (fluorogenic substrate, Morrison tight-binding fit); inhibitor serially diluted against trypsin (42 nM); 100 mM sodium phosphate buffer pH 7.6, 1 mM HCl, 20 mM Ca, 0.01% Brij L23; substrate Z-Leu-Arg-NHMec
[3] = target: human cathepsin K (human) (UniProt P43235); assay: enzyme inhibition kinetics (fluorogenic substrate, Morrison tight-binding fit); inhibitor serially diluted (20 to 0.1 nM) against each cysteine protease; 50 mM citrate phosphate buffer pH 5.5, 2 mM DTT, 0.01% Brij L23; 37 °C; substrate at its Km; Ki worked out from the apparent Ki
human cathepsin K (human), sequence (P43235 115-329): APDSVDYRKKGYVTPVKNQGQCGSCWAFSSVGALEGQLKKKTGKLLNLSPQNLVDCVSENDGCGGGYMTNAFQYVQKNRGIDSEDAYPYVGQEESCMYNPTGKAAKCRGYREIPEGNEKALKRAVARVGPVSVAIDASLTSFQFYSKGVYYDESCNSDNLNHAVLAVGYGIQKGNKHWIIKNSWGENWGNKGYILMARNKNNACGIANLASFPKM

[4] = target: human cathepsin L (human); assay: as above
[5] = target: recombinant F. hepatica cathepsin L1 (Fasciola hepatica); assay: as above
[6] = target: recombinant F. hepatica cathepsin L2 (Fasciola hepatica); assay: as above
[7] = target: human cathepsin K (human) (UniProt P43235)
[8] = target: human cathepsin L (human)
[9] = target: recombinant F. hepatica cathepsin L1 (Fasciola hepatica)
[10] = target: recombinant F. hepatica cathepsin L2 (Fasciola hepatica)

Row | Substance | reduction of trypsin activity (fluorogenic substrate) by 300 nM rFhKT1Leu15/Arg15 [1] | pKi [2] | pKi [3] | pKi [4] | pKi [5] | pKi [6] | reduction of protease activity (fluorogenic substrate) by 300 nM rFhKT1 [7] | reduction of protease activity (fluorogenic substrate) by 300 nM rFhKT1 [8] | reduction of protease activity (fluorogenic substrate) by 300 nM rFhKT1 [9] | reduction of protease activity (fluorogenic substrate) by 300 nM rFhKT1 [10]
1 | recombinant FhKT1Leu15/Arg15 variant (natural protein) | 88.9% | 8.82 | 8.00 | 8.52 | 9.15 | 7.57 |  |  |  | 
2 | recombinant Fasciola hepatica Kunitz-type protease inhibitor FhKT1 (natural protein) |  |  | 8.30 | 8.80 | 9.40 | 8.00 | 99.5% | 96.8% | 98.9% | 90.3%

From publication PMC5016662
